Source: the supplement of paper PMC9170038

Tested on: K4 kissing-loop RNA reporter
Assay: apparent KD of K4 kissing-loop reporter; higher = weaker reporter binding
Conditions: Eterna round: R107
Experimental: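 RNA-MaP round R107: designed RNA switches with theophylline, tryptophan, arginine or FMN aptamers are transcribed on-chip within common flanks. They are titrated with a labelled K4 kissing-loop RNA reporter in RNA-MaP buffer (100 mM Tris pH 7.5, 80 mM KCl, 4 mM MgCl2), without ligand or with the indicated ligand. Median apparent KD per design.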

[1] = input ligand: theophylline 20 uM
[2] = input ligand: tryptophan 2.4 mM
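Further: bound reporter read as fluorescence of individual clusters on recovered sequencing chips by microscopy, with normalized cluster intensities fitted with a binding model.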

Sequence | apparent KD of K4 kissing-loop reporter (input ligand: FMN 200 uM) [nM] | apparent KD of K4 kissing-loop reporter (input ligand: arginine 13.2 mM) [nM] | apparent KD of K4 kissing-loop reporter (input ligand: none) [nM] | apparent KD of K4 kissing-loop reporter [1] [nM] | apparent KD of K4 kissing-loop reporter [2] [nM]
CAUAGGAAACUAUGUUCCUCUCUUACUGAAGGAGCGCGUGAAAACGCAGGUAGGUCGCAGGAUUUGAGAGUGAUGUUCUCAUUAA [Ex Arginine A K4 15] | 160 | 260 | 254 | 278 | 171
CAUUACGGUCGCUUACCAAACCACUACUUCCGAGGACCGGUACGGCCGCCACUCGCCAGUGAUGUUGGCUCGGGCGGCCGAUUAU [Orrebeante] | 117 | 103 | 109 | 97.9 | 106
CCAAGGUGCUUCUGUUCAGUGAUGUUGGUACGAGGACCGGUACGGCCGCCACUCGCCGUACAAUCGCUAGUUAAUCAUUGGCAAG [theeternabot_exclusion_KL_Trp_A_40] | 667 | 408 | 660 | 441 | 256
CCACCUCCAGAAGGAUAUAGUGUAUCAGAUUCACUCGAGUGCCUUAAACUAAGGAGUGAUGUUCCGCUAGAAGGUCUCGUAGGCA [theeternabot_exclusion_KL_FMN_B_45] | 191 | 145 | 149 | 138 | 133
CCAUCGCUAUUCGAUACCAGCCAGGAGGUCUUUGGCCUCCUAUUGGAGUGAUGUUCCAUAGGCCCUUGGCAGCGAAUAGUGAUGG [Theophylline B K4 16] | 372 | 187 | 283 | 542 | 374
CCAUCGCUAUUCGAUACCAGUCAGGAGGUCUUUGGCCUCCUAUUGGAGUGAUGUUCCAUAGACCCUUGGCAGCGAAUAGUGAUGG [Theophylline B K4 15] | 822 | 255 | 834 | 613 | 510
CCCUCACGAGUGAUGUUCGUAGGGUACAGUCAGGAUAUCAUGCGGUUGAGAAGGGACAGAGAAGGCGGCGACGGGUUGCUUAUCU [Atenus] | 206 | 243 | 277 | 200 | 218
CCGAUACAUUAUUCUACGGCCGAGAGCGAUACCAGCCAAAUUUAUGGCCCUUGGCAGCGCAGAUGCAGUGAUGUUGCAUACAUAC [Same State Theophylline A GF 18] | 102 | 158 | 95.6 | 166 | 83.2
CCGAUGGGUACAGGAUAUGCCAGUGAUGUUGGUUUAGAUGGACCCAGAAGGAGACACCAGACGGAGGCAGAAGGGUAGCAAGGGA [Raarriis] | 140 | 108 | 106 | 100 | 105
CCGCCGGUCGGAAGGAGCGCACGCCAGAGUGAUGUUCUGGCGCAGGCAUUUAGUGCCCGCGUGCAGGUAGGUCGCCGAUUCUGGC [Arlaaa] | 341 | 310 | 423 | 234 | 270
CCGCUACCCUCAGGAUAUUAAAUAUUAGUGAUGUUAAUAAACCGAUGGCGAAAGCCAUCGGUAUGUUAAGAAGGGAGGGUAGCGG | 138 | 847 | 974 | 949 | 965
CCGCUACCCUCAGGAUAUUAAGUAUUAGUGAUGUUAGUAAACCGAUGGCGAAAGCCAUCGGUAUGUUGAGAAGGGAGGGUAGCGG [whbob_SS_FMNB__2th198] | 356 | 946 | 1170 | 847 | 923
CCUAUCUCAUACGAUACCAGUCAAAUAAAUUAUAACGAGUGAUGUUCGAAAUGCCAUCACGACCCUUGGCAGCGUAUGGGAUAGG [Ex Theophylline B K4 1] | 304 | 123 | 212 | 186 | 125
CCUAUCUCAUACGAUACCAGUCUAUUAAAACGAGUGAUGUUCGAAUAUUUGCCAUAUAAUGACCCUUGGCAGCGUAUGGGAUAGG [Ex Theophylline B K4 9] | 221 | 229 | 244 | 230 | 190
CCUAUCUCGUACGAUACCAGACUAUGAUCUUUGAUCAAUGCCAUCACCGAGUGAUGUUCGGUCCCUUGGCAGCGUAUGAGAUGGG [#12 K4 Theophylline B Exclusion] | 179 | 143 | 170 | 202 | 155
CCUAUCUCUUACGAUACCAGUCAAUGAUAUUUUAUCAAUGCCCUCACCGAGUGAUGUUCGGACCCUUGGCAGCGUCUGGGAUAGG [pvppimullin] | 223 | 170 | 212 | 190 | 191
CCUCACGUAGGACUAGUGAUGUUAGACUACCGAGGACCGGUACGGCCGCCACUCGUCGUACAAGAUAACCUUCCGCCAGUAUACA | 113 | 91.8 | 99.9 | 83.6 | 108
CCUUCUCUUGAUAGUGAUGUUGUCAAGGGCAAGGAUAUCAUCUUAAUGAGAAGGUGUCCUUGAUAACAUGGAGGUCUGAAACAGA [Omei KL FMN A Exc C v7] | 123 | 305 | 301 | 380 | 375
CGAGCGGAGUGAUGUUCCGUGCCAGCAGAUACCAGAUUGAAAGAGAUCCCUUGGCAGCUGCGUCACACCCUUACGUGAUAGGACC [theeternabot_sameState_KL_Theo_A_32] | 244 | 178 | 239 | 275 | 165
CGAGUCCUGAGGAGUGAUGUUCCUCGGCCACGAGGACCGGUACGGCCGCCACUCGUUACUCGGGCUUAGCAGCAAGCACUAAGCU [Acesote] | 348 | 317 | 334 | 302 | 127
CGAGUCCUGAGGAGUGAUGUUCCUCGGCCACGAGGACCGGUACGGCCGCCACUCGUUACUCGGGCUUAGUAGCUAGCACUAAGCU [Quedmaon] | 265 | 171 | 186 | 232 | 101
CGAGUGAUGUUCGUUCGUUUAUUUCGGUGACAGGAUAUGCGGAAACGCAGAAGGGUCACCUUUGGGUUACCGGAAUUAACGUUAU [Ex FMN A 30] | 640 | 455 | 561 | 414 | 584

Sequence | apparent KD of K4 kissing-loop reporter (input ligand: FMN 200 uM) [nM] | apparent KD of K4 kissing-loop reporter (input ligand: arginine 13.2 mM) [nM] | apparent KD of K4 kissing-loop reporter (input ligand: none) [nM] | apparent KD of K4 kissing-loop reporter [1] [nM] | apparent KD of K4 kissing-loop reporter [2] [nM]
CGAGUGAUGUUCGUUUUUUACUCUUUUUGACAGGAUAUGCGGAAACGCAGAAGGGUCACCUUUGAGUUAAAAGGAGUUAUUUUUU [Ex FMN A 19] | 345 | 269 | 318 | 305 | 317
CGCAGUGAUGUUGCGAAUAUAAUAACGGAAGGAGCGCGUGAAAACGCAGGUAGGUCGCCGUUUGGUAUGAUGGAAACAUCGUACC [Arginine A K4 11] | 135 | 138 | 132 | 106 | 123
CGCAGUGAUGUUGCGAAUAUAAUUACGGAAGGAGCGCGUGAAAACGCAGGUAGGUCGCCGUUUGGUAUGAUGGAAACAUCGUACC [Arginine A K4 10] | 140 | 125 | 147 | 115 | 117
CGCAGUGAUGUUGCUAUUAUUCUUGGUUAACGAGGACCGGUACGGCCGCCACUCGAUGUCUGUCUAGUCCAGUGUUUUUUUGAGU [whbob_EX_Tryp_A_t8] | 351 | 467 | 506 | 579 | 228
CGCAGUGAUGUUGCUAUUAUUCUUGGUUAACGAGGACCGGUACGGCCGCCACUCGAUUUCUAUCUAAUCCAGUGUUUUUUUGAGU [JR_ExcTryptoA_Sub003] | 301 | 377 | 396 | 458 | 204
CGCGCGGGUUUGAGAGGGUUUGCGCGAAGUGAGGAUAUUUAGGGAGAAAGAAGGCACUAUAAAAUAUAGUGAUGUUAUAUAAGGG [SSFMNA.I] | 627 | 117 | 251 | 139 | 269
CGGAUGUAGUGAUGUUAUAUUAGAUGUAGACGAGGACCGGUACGGCCGCCACUCGUAACGGCUGCUAGCGCGUUGCGAGGUGUGC [ExTryptoA.Cl] | 642 | 611 | 721 | 570 | 510
CGGCGGAGUGAUGUUCCACCUACUGCGGAUACCAGCUUUGCCAAAGGCCCUUGGCAGCCGCACGGCUCAGUGAUGUUGGGUCGCG [Same State Theophylline A G11] | 225 | 179 | 244 | 223 | 199
CGGUACGUCGCAGGAUAUGUAAAUGUAAGUGAUGUUUACAUACCAUGCUGGCGAAAGCCAGCAUGGACAGAAGGGCGACGUACCG | 111 | 354 | 470 | 328 | 506
CGUGAGUGCCGUCAGUCAUCGGUCCAUGCACGAGGACCGGUACGGCCGCCACUCGAGCGUGGCAGUGAUGUUGCCAGCGCACUAA [KL-XTryp-A12] | 117 | 98.7 | 103 | 112 | 89.4
CGUGGUGCUCGCCAGCUGUGCGAGCGGUGGGAGGAUAUGUCGCGAGACAGAAGGCCCAGUGAUGUUGGGCAGGCUCGUAGAUCAA [Orbemaed] | 152 | 118 | 121 | 133 | 116
CGUUCUUCUGUCGAUACCAGCUUCAGUUGGCGGCCAGUGAUGUUGGUAUCGCCGAUGCCAAGCCCUUGGCAGCGACAUGAGACCC [Onrire] | 171 | 180 | 182 | 130 | 168
CGUUGUGAUGCUUGUGCUCAUACCGGAGAUACCAGUACCAUCACUUACCCUUGGCAGCUCAGUAAAGACAAGUGAUGUUUGUCAC [theeternabot_sameState_KL_Theo_A_38] | 684 | 528 | 805 | 560 | 502
CUACAUGCACAGGAGUGAUGUUUAUGGGCUCGAGGACCGGUACGGCCGCCACUCGUUAUGGCACGCAGUAGAUAUAGGCGAGGAA [theeternabot_sameState_KL_Trp_A_41] | 615 | 381 | 605 | 448 | 871
CUAUAUAGUGAUGUUAUAUAGAUAACAGAUACCAGCUAGAAAACUAGCCCUUGGCAGCUGAUAAGGGAAAGUAUAAUUGUGUAAA [AstroSTH-A#DifdesignED20.18] | 82.1 | 73 | 76 | 64.8 | 73.7
CUCCAACUUGAUGAUACCAGAGAGGAGGAAGUGAUGUUGACUCCGGCUACAUACUGGCGACUCCCUUGGCAGCAUUACGUCAUCC [theeternabot_sameState_KL_Theo_B_3] | 389 | 265 | 318 | 417 | 353
CUCGAGUGAUGUUCGAUUAUGUAUACAGAUACCAGUGAAUUUUAACACCCUUGGCAGCUGGUAGAAUCAUUGUAAUUUUAACUAG [JR_ExcTheophyA_Sub001] | 175 | 260 | 218 | 254 | 150
CUGACGCUGAUACGGUGGCCGAUGGUCGUGCGAGGACCGGUACGGCCGCCACUCGCAUGAGUGAUGUUCAUGUGUCGUCGUCGUC [#06 K4 Tryptophan A Exclusion] | 135 | 115 | 130 | 106 | 142
CUGCCGUGCCAUGGGCCAGUGAUGUUGGAACGAGGACCGGUACGGCCGCCACUCGCUUAGCGUCAAAGGCGUCCCGAAUAGAAAG [theeternabot_exclusion_KL_Trp_A_14] | 374 | 230 | 340 | 317 | 374
CUGCCGUUUACAGAUACCAGACUAAUAACGGCAGCACAGAAUGUGAGUGAUGUUCGCAUAGUCCCUUGGCAGCUGUAUAACAGUA [Theo B Ex t3] | 219 | 199 | 227 | 287 | 191
CUUAAGACAUGAGUGAUGUUCAUGUCCGAAGGAGCGUGCGAAAGCACAGGUAGGUCGCGGACGUGAGUGAUGUUCAUGUAAGCGA [KL-XArg-A11 #analogue] | 159 | 125 | 156 | 154 | 140
